From US20230227512A1 come the findings set out here.

Experiment [1] concerns the target BG505 SOSIP.664 trimer+sCD4 complex (HIV-1 strain BG505; human) (UniProt P01730). In words: SPR read-out on captured 3074 IgG of trimer incubated with sCD4.
Experiment [2] concerns the target BG505.SOSIP.664.201C-433C HIV-1 Env ectodomain trimer (HIV-1 strain BG505). Put plainly: SPR, single-cycle kinetics.

3074 antibody: the t1/2 of CD4-induced appearance of binding in experiment [1] is 4.2 h.
“soluble CD4 (sCD4) (from UniProt P01730 26-208) (receptor)”: in experiment [2], the fold faster off-rate relative to parent SOSIP.664 was found to be 10 fold and the fold reduction in KD (affinity) relative to SOSIP.664 came out at 10 fold.
